In patent US20250049896A1 (Regeneron, published 2025):

Experiments:
[1] = biological target: T1, mf TFRC ecto-mmh (REGN2054), monomeric monkey (cyno) Tfrc ectodomain with C-terminal myc-myc-hexahistidine tag (monkey (cyno), Macaca fascicularis, UniProt H9EXL1 89-760); assay: SPR (Biacore), mAb from CHO supernatant captured on anti-human Fc, 100 nM mfTfR-mmh injected, 25 C
T1 construct: range 89-760; also called mfTfR-mmh; mfTFR-mmh
Experimental: (§1) Biacore binding kinetics assays were conducted for the interaction of 32 anti-human TfR IgG1 monoclonal antibodies from CHO supernatants with TfR reagents at 25° C.
(§2) Equilibrium dissociation constants (KD) for the interaction of anti-TfR monoclonal antibodies with human and fascicularis monkey TfR ecto domain recombinant proteins were determined using a real-time surface plasmon resonance (SPR) based Biacore S200 biosensor. All binding studies were performed in 10 mM HEPES, 150 mM NaCl, 3 mM EDTA, and 0.05% v/v surfactant Tween-20, pH 7.4 (HBS-EP) running buffer at […]. The Biacore CM5 sensor surface was first derivatized by amine coupling with a monoclonal mouse anti-human Fc antibody (REGN2567) followed by a step to capture anti-TfR monoclonal antibodies in CHO conditioned media. […] The dissociation of TfR bound to anti-TfR monoclonal antibodies was monitored for 3 minutes in HBS-EP running buffer. At the end of each cycle, the anti-TfR monoclonal antibodies capture surface was regenerated using a 12-sec injection of 20 mM H₃PO₄. The association rate (ka) and dissociation rate (kd) were determined by fitting the real-time binding sensorgrams to a 1:1 binding model with mass transport limitation using Scrubber 2.0 c software. The dissociation equilibrium constant (KD) and dissociative half-life (t½) were calculated from the kinetic rate constants as: […]

[2] = biological target: T2, hmm.hTfRC (REGN2431), human transferrin receptor extracellular domain with hexahistidine-myc-myc tag (human, UniProt P02786 89-760); assay: SPR (Biacore), mAb captured on anti-human Fc, 100 nM hTFR-mmh, 25 C
T2 construct: Monomeric recombinant protein, 79210 g/mol; also called hTFR-mmh; His-myc-myc-hTFRC ecto
Experimental: as §1, §2

[3] = biological target: T1, mf TFRC ecto-mmh (REGN2054), monomeric …; assay: SPR (Biacore), mAb captured on anti-human Fc, 100 nM mfTfR-mmh, 25 C
Experimental: as §1, §2

[4] = biological target: T3, Hmm-hTFRC (REGN2431), monomeric human transferrin receptor ectodomain with N-terminal hexahistidine-myc-myc … (human, UniProt P02786 89-760); assay: blocking ELISA, supernatant; Hmm-hTFRC binding to immobilized human holo-Tf
T3 construct: also called hmm.hTfR(C89-F763); His-myc-myc-hTFRC ecto
How it was run: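 Plates were coated with anti-hTf goat pAb at 2 µg/mL overnight at 4 °C, then loaded with human holo-Tf at 1 µg/mL for 2 h at room temperature. Bound receptor was detected with TMB and absorbance read at 450 nm.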

T1 sequence (chain, as listed by the source): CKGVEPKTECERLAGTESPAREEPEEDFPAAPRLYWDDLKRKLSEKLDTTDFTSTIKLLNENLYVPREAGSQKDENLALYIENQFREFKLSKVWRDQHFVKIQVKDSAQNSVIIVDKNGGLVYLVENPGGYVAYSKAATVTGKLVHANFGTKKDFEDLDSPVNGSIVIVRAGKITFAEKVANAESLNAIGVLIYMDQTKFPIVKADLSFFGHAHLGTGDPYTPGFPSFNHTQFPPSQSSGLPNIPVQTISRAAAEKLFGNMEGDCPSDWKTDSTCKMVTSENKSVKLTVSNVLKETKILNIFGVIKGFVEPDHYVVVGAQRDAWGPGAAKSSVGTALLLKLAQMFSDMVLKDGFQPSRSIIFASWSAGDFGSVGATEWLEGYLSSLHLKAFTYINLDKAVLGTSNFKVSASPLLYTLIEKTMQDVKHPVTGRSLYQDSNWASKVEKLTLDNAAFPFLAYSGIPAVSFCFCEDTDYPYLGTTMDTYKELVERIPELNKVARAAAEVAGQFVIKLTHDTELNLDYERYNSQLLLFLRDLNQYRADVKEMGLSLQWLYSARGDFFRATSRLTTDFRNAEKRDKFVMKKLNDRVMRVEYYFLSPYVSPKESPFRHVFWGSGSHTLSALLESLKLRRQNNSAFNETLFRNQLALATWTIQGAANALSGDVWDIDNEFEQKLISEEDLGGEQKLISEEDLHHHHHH
T2 sequence (P02786 other isoform, or with tags, fused parts or gaps): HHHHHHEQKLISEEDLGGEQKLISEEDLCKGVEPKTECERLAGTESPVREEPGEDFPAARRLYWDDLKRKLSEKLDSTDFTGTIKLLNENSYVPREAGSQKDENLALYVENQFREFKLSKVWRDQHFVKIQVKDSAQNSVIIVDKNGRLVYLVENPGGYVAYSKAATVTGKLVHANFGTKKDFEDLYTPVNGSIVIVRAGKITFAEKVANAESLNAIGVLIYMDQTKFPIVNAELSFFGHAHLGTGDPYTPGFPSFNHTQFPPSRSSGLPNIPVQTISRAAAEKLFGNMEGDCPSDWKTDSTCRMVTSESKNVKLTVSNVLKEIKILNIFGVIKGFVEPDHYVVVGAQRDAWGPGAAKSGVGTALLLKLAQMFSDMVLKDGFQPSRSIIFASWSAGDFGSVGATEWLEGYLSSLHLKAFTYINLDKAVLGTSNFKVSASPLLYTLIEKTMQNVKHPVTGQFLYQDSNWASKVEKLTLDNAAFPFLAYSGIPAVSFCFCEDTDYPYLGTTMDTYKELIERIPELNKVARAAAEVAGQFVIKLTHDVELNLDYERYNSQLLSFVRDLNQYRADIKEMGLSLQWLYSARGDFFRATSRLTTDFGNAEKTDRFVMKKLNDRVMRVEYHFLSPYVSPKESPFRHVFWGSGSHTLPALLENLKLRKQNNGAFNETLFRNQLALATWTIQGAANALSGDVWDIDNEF
T3 sequence (P02786 other isoform, or with tags, fused parts or gaps): as above

Binder | binding result [1] | 100 nM Ag Bound (RU) [2] [RU] | Kd [2] [nM] | koff [2] [s⁻¹] | kon [2] [M⁻¹ s⁻¹] | t½ [2] [min] | 100 nM Ag Bound (RU) [3] [RU] | % Blocking [4] [%]
69326 (antibody, human IgG1, kappa, V domains shown, Tested as bivalent human IgG1 from CHO primary supernatant) VH: EVQLVESGGGLVQPGGSLRLSCAVSGFIFSSYEMNWVRQAPGKGLEWVSYISSSGSTIFYADSVKGRFTISRDNAKNSLYLQMNSLRAEDTAVYYCVSGVVLFDVWGQGTMVTVSS VL: EIVMTQSPATLSVSPGERATLSCRASQSVSSNFAWYQQKPGQAPRLLIYSASSRATGIPVRFSGSGSGTEFTLTISSLQSEDFAVYYCQQYNIWPRTFGQGTKVEIKR | no binding (tested: 100 nM) | 680 | 2.22 | 0.000256 | 115000 | 45.1 | 9 | 
69332 scFv (VK-VH) (scFv, CHO supernatant; Vk-3xG4S-Vh) scFv: AIQMTQSPSSLSASVGDRVTITCRASQGIRNDLGWYQQKPGKAPKLLIYAASTLQSGVPSRFSGSGSGTDFTLTISSLQPEDFATYYCLQDYNYPFTFGPGTKVDIKGGGGSGGGGSGGGGSQVTLRESGPALVKPSQTLTLTCTFSGFSLNTYGMFVSWIRQPPGKALEWLAHIHWDDDKYYSTSLKTRLTISKDTSKNQVVLTMTNMDPVDTATYYCARGHNNLNYIIHWGQGTLVTVSS |  |  |  |  |  |  |  | 22
69348 scFv (VH-VK) (scFv) QVQLVESGGGVVQPGRSLRLSCAASGFTFTTYGMHWVRQAPGKGLEWVAVIWYDGSNKYYGDSVKGRFTISRDNSKNTLYLQMNSLRVDDTAVYYCTRTHGYTRSSDGFDYWGQGTLVTVSSDIQMTQSPSSLSASVGDRVTITCRASQSIRNVLGWFQQKPGKAPQRLIYAASSLQSGVPSRFSGSGSGTEFTLTISSLQPEDFATYYCLQHNFYPLTFGGGTKVEIK |  |  |  |  |  |  |  | 0
69340 scFv (VH-VK) (scFv) EVQLVESGGGLVQPGRSLRLSCAASGFTFDDKAMHWVRQVPGKGLEWISGISWNSGTIGYADSVKGRFIISRDNAKNSLYLQMNSLRAEDTALYYCAKDGDTSGWYWYGLDVWGQGTTVTVSSEIVLTQSPATLSLSPGERATLSCRASQSVSSYLAWYQQKPGQAPRLLIHDVSNRATGIPARFSGSGSGTDFTLTISSLEPEDFVVYYCQQRSDWPITFGQGTRLEIK |  |  |  |  |  |  |  | 6
69332 scFv (VH-VK) (scFv) QVTLRESGPALVKPSQTLTLTCTFSGFSLNTYGMFVSWIRQPPGKALEWLAHIHWDDDKYYSTSLKTRLTISKDTSKNQVVLTMTNMDPVDTATYYCARGHNNLNYIIHWGQGTLVTVSSAIQMTQSPSSLSASVGDRVTITCRASQGIRNDLGWYQQKPGKAPKLLIYAASTLQSGVPSRFSGSGSGTDFTLTISSLQPEDFATYYCLQDYNYPFTFGPGTKVDIK |  |  |  |  |  |  |  | 6
69348 scFv (VK-VH) (scFv, CHO supernatant; Vk-3xG4S-Vh) scFv: DIQMTQSPSSLSASVGDRVTITCRASQSIRNVLGWFQQKPGKAPQRLIYAASSLQSGVPSRFSGSGSGTEFTLTISSLQPEDFATYYCLQHNFYPLTFGGGTKVEIKGGGGSGGGGSGGGGSQVQLVESGGGVVQPGRSLRLSCAASGFTFTTYGMHWVRQAPGKGLEWVAVIWYDGSNKYYGDSVKGRFTISRDNSKNTLYLQMNSLRVDDTAVYYCTRTHGYTRSSDGFDYWGQGTLVTVSS |  |  |  |  |  |  |  | 16
69332 Fab (Fab, V domains shown, CHO supernatant) VH: QVTLRESGPALVKPSQTLTLTCTFSGFSLNTYGMFVSWIRQPPGKALEWLAHIHWDDDKYYSTSLKTRLTISKDTSKNQVVLTMTNMDPVDTATYYCARGHNNLNYIIHWGQGTLVTVSS VL: AIQMTQSPSSLSASVGDRVTITCRASQGIRNDLGWYQQKPGKAPKLLIYAASTLQSGVPSRFSGSGSGTDFTLTISSLQPEDFATYYCLQDYNYPFTFGPGTKVDIKR |  |  |  |  |  |  |  | 18
69307 (antibody, human IgG1, kappa, V domains shown, Tested as bivalent human IgG1 from CHO primary supernatant) VH: EVQLVESGGGLVQPGGSLRLSCTASGFTFSNYWMTWVRQAPGKGLEWVANIKEDGSEKEYVDSVKGRFTISRDNAKNSLYLQMNSLRGEDTAVYYCARDGEQLVDYYYYYVMDVWGQGTTVTVSS VL: DIQMTQSPSSVSASVGDRVTITCRASQGISSWLAWYQQKPGKAPKLLIYAASSLQSGVPSRFSGSGSGTDFTLTISSLQPEDFATYYCQKADSLPYAFGQGTKLEIKR | no binding (tested: 100 nM) | 1280 | 0.226 | 4.26e-05 | 190000 | 271 | 3 | 
12812B (antibody, human IgG1, kappa, V domains shown, Tested as bivalent human IgG1 from CHO primary supernatant) VH: QVQLVQSGAEVKKPGSSVRVSCKASRGTFSSYAISWVRQAPGQGLEWMGGIIPIFGTANYAQKFLARVTITADESTSTAYMELSSLRSEDTAVYYCAREKGWNYFDYWGQGTLVTVSS VL: DIQMTQSPPSVSASVGDRVTITCRASQGISSWLAWYQQKPGKAPKLLIYAASSLQSGVPSRFSGSGSGTDFTLTISSLQPEDFATYYCQQANSFPRTFGQGTKVEIKR | no binding (tested: 100 nM) | 11 | 3.02 | 0.00131 | 433000 | 8.8 | 1 | 
69329 (antibody, human IgG1, kappa, V domains shown, Tested as bivalent human IgG1 from CHO primary supernatant) VH: EVQLVESGGGLVQPGGSLRLSCAASGFTFSNYWMTWVRQAPGKGLEWVANIKEDGSEKDYVDSVKGRFTISRDNAKNSLYLQMNSLRGEDTAVYYCARDGEQLVDYYYYYVMDVWGQGTTVTVSS VL: DIQMTQSPSSVSASVGDRVTITCRASQGISSWLAWYQQKPGKAPKLLIYAASSLQSGVPSRFSGSGSGTDFTLTISSLQPEDFATYYCQKANSFPYTFGQGTKLEIKR | no binding (tested: 100 nM) | 1100 | 0.97 | 0.000186 | 192000 | 62.2 | 8 | 
69348 Fab (Fab, V domains shown, CHO supernatant) VH: QVQLVESGGGVVQPGRSLRLSCAASGFTFTTYGMHWVRQAPGKGLEWVAVIWYDGSNKYYGDSVKGRFTISRDNSKNTLYLQMNSLRVDDTAVYYCTRTHGYTRSSDGFDYWGQGTLVTVSS VL: DIQMTQSPSSLSASVGDRVTITCRASQSIRNVLGWFQQKPGKAPQRLIYAASSLQSGVPSRFSGSGSGTEFTLTISSLQPEDFATYYCLQHNFYPLTFGGGTKVEIKR |  |  |  |  |  |  |  | 40
69340 Fab (Fab, V domains shown, CHO supernatant) VH: EVQLVESGGGLVQPGRSLRLSCAASGFTFDDKAMHWVRQVPGKGLEWISGISWNSGTIGYADSVKGRFIISRDNAKNSLYLQMNSLRAEDTALYYCAKDGDTSGWYWYGLDVWGQGTTVTVSS VL: EIVLTQSPATLSLSPGERATLSCRASQSVSSYLAWYQQKPGQAPRLLIHDVSNRATGIPARFSGSGSGTDFTLTISSLEPEDFVVYYCQQRSDWPITFGQGTRLEIKR |  |  |  |  |  |  |  | 3
12834B (antibody, human IgG1, kappa, V domains shown, Tested as bivalent human IgG1 from CHO primary supernatant) VH: QVQLVQSGAEVKKPGASVKVSCKASGYTFTSYGISWVRQAPGQGLEWMGWISVYHGNTNYAQKFQGRVTMTTDTSTSTAYMELRSLRSDDTAVYYCAREGYYDFWSGYYPFDYWGQGTLVTVSS VL: not shown | no binding (tested: 100 nM) | 11 | 7 | 0.00439 | 600000 | 2.6 | 5 | 
69331 scFv (VK-VH) (scFv, CHO supernatant; Vk-3xG4S-Vh) scFv: DIQLTQSPSSLSASVGDRVTITCWASQGISSYLAWYQQKPGKAPKLLIYAASTLQSGVPSRFSGSGSGTEFTLTISSLQPEDFATYYCQQLNSYPLTFGGGTKVEIKGGGGSGGGGSGGGGSQVQLVESGGGVVQPGRSLRLSCIASGFTFSVYGIHWVRQAPGKGLEWMAVISHDGNIKHYADSVKGRFTISRDNSKNTLYLQINSLRTEDTAVYYCAKDTWNSLDTFDIWGQGTMVTVSS |  |  |  |  |  |  |  | 13
69331 scFv (VH-VK) (scFv) QVQLVESGGGVVQPGRSLRLSCIASGFTFSVYGIHWVRQAPGKGLEWMAVISHDGNIKHYADSVKGRFTISRDNSKNTLYLQINSLRTEDTAVYYCAKDTWNSLDTFDIWGQGTMVTVSSDIQLTQSPSSLSASVGDRVTITCWASQGISSYLAWYQQKPGKAPKLLIYAASTLQSGVPSRFSGSGSGTEFTLTISSLQPEDFATYYCQQLNSYPLTFGGGTKVEIK |  |  |  |  |  |  |  | 7
69340 scFv (VK-VH) (scFv, CHO supernatant; Vk-3xG4S-Vh) scFv: EIVLTQSPATLSLSPGERATLSCRASQSVSSYLAWYQQKPGQAPRLLIHDVSNRATGIPARFSGSGSGTDFTLTISSLEPEDFVVYYCQQRSDWPITFGQGTRLEIKGGGGSGGGGSGGGGSEVQLVESGGGLVQPGRSLRLSCAASGFTFDDKAMHWVRQVPGKGLEWISGISWNSGTIGYADSVKGRFIISRDNAKNSLYLQMNSLRAEDTALYYCAKDGDTSGWYWYGLDVWGQGTTVTVSS |  |  |  |  |  |  |  | 13
